Laboratory results reported in IntAct's records for PubMed 18583960.

B1: Serine/threonine-protein kinase TBK1 (Mus musculus), Q9WUN2 (parent)
chain: MQSTSNHLWLLSDILGQGATANVFRGRHKKTGDLYAVKVFNNISFLRPVDVQMREFEVLKKLNHKNIVKLFAIEEETTTRHKVLIMEFCPCGSLYTVLEEPSNAYGLPESEFLIVLRDVVGGMNHLRENGIVHRDIKPGNIMRVIGEDGQSVYKLTDFGAARELEDDEQFVSLYGTEEYLHPDMYERAVLRKDHQKKYGATVDLWSVGVTFYHAATGSLPFRPFEGPRRNKEVMYKIITGKPSGAISGVQKAENGPIDWSGDMPLSCSLSQGLQALLTPVLANILEADQEKCWGFDQFFAETSDVLHRMVIHVFSLQHMTAHKIYIHSYNTAAVFHELVYKQTKIVSSNQELIYEGRRLVLELGRLAQHFPKTTEENPIFVTSREQLNTVGLRYEKISLPKIHPRYDLDGDASMAKAVTGVVCYACRTASTLLLYQELMRKGVRWLVELVKDDYNETVHKKTEVVITLDFCIRNIEKTVKVYEKLMKVNLEAAELGEISDIHTKLLRLSSSQGTIESSLQDISSRLSPGGLLADTWAHQEGTHPRDRNVEKLQVLLNCITEIYYQFKKDKAERRLAYNEEQIHKFDKQKLYYHATKAMSHFSEECVRKYEAFKDKSEEWMRKMLHLRKQLLSLTNQCFDIEEEVSKYQDYTNELQETLPQKMLAASGGVKHAMAPIYPSSNTLVEMTLGMKKLKEEMEGVVKELAENNHILERFGSLTMDGGLRNVDCL
partner: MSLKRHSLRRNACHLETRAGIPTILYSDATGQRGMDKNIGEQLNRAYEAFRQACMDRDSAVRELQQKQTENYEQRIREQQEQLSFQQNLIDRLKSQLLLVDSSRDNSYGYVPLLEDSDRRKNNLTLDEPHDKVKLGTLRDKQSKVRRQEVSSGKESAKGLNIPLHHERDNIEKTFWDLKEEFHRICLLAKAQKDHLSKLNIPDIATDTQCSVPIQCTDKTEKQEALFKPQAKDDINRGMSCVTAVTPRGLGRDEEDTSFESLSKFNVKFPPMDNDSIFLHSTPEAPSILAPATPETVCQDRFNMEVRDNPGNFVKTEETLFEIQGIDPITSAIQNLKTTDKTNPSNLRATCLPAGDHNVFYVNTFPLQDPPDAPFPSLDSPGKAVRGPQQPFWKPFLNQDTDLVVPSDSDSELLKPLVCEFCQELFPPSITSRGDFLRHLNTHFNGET

Variants of: B1
Conditions: with tank_mouse Tank

Row | effect of a mutation on the interaction | Variant
1 | decreasing interaction | S172A
